This passage reports Kd results from US20250171558A1.

pKd: −log10 of the molar value.

The target in test [1] is FcγRIII. The test is described as follows: SPR; rhesus FcγR. For orientation: SPR reads the build-up and loss of mass on a sensor chip optically.
The target in a further test is FcγRIIa. The test is described as follows: SPR; rhesus FcγR.
In test [2] the target is FcγRI. The test is described as follows: SPR; rhesus FcγR.
The target of test [3] is FcγRIIb. The test is described as follows: SPR; rhesus FcγR.
In another test the target is FcγRIIIa V. As to the kind of experiment: SPR; human FcγRIIIa V157.
The next test concerns the target FcγRIIa R. The test is described as follows: SPR; human FcγRIIa R131.
The target of a further test is FcγRIIIa F. The test is described as follows: SPR; human FcγRIIIa F157.
A further test has as its target FcγRIIa H. As to the kind of experiment: SPR; human FcγRIIa H131.
A further test has as its target FcγRIV. As to the kind of experiment: SPR; mouse FcγR.
The target of test [4] is FcγRIII. The test is described as follows: SPR; mouse FcγR.
The target of test [5] is FcγRI. As to the kind of experiment: SPR; mouse FcγR.
The target of test [6] is FcγRIIb. As to the kind of experiment: SPR; mouse FcγR.
Test [7] concerns the target human FcRn/B2 microglobulin. The test is described as follows: SPR; pH 6.0.

In general, pKd refers to the negative decadic logarithm of the Kd, by convention in mol/L. Read a high pKd as a low Kd. In the case of GAALIE, the pKd with FcγRIII [1] is 7.04; with FcγRIIa it was 5.04; with FcγRI [2], 9.34; with FcγRIIb [3], 5.16; with FcγRIIIa V, 6.88; with FcγRIIa R, 6.09. In addition, the pKd is 6.79 with FcγRIIIa F; 6.21 with FcγRIIa H; 6.68 in the test with FcγRIV; 5.62 in the test with FcγRIII [4]; 6.36 with FcγRI [5]; 5.79 with FcγRIIb [6].

On to GAALIE LS+, for which the negative-log Kd (pKd) in [7] is 8.85.

In [7], GAALIE LS- gave a pKd of 7.70.

Take GAIE: the pKd in the test with FcγRIII [1] is 7.06; with FcγRIIa it was 5.85; with FcγRI [2], 9.29; in the test with FcγRIIb [3] it was 5.96; with FcγRIIIa V it was 6.89; with FcγRIIa R it was 6.69. Also, the pKd with FcγRIIIa F is 6.79; with FcγRIIa H, 6.60; with FcγRIV it was 6.59; in the test with FcγRIII [4], 5.60; in the test with FcγRI [5] it was 6.67; with FcγRIIb [6], 5.94.

Turning to GAIE LS+, the pKd in test [7] was 8.70.

GAIE LS- showed a pKd in test [7] of 7.70.

As to SDIE, the pKd in the test with FcγRIII [1] was 7.52; with FcγRIIa it was 6.16; with FcγRI [2], 9.36; in the test with FcγRIIb [3], 6.27; with FcγRIIIa V, 7.53; with FcγRIIa R, 6.45. Further, the pKd was 7.32 with FcγRIIIa F; 6.11 with FcγRIIa H; 8.07 with FcγRIV; 5.97 with FcγRIII [4]; 7.85 with FcγRI [5]; 6.40 with FcγRIIb [6].

With SDIE LS+, the pKd in test [7] is 8.92.

With SDIE LS-, the pKd in test [7] was 7.90.
